Consider 2 molecules from patent US20220002389A1.

For test [1], the target named is HIV-1 BaL strain envelope protein (gp120) on BaL-infected CEM.NKR-CCR5 (NKR24) cells (HIV-1 BaL strain). The test is described as follows: flow cytometry on BaL-infected NKR24 cells; antibody at 0.032 µg/mL. (In general: Flow cytometry measures light scatter and fluorescence of single cells or particles in a stream.)
For test [2] the target is unchanged. The test can be described thus: flow cytometry on BaL-infected NKR24 cells; antibody at 20 µg/mL.
Test [3] shares this target. The test can be described thus: flow cytometry on BaL-infected NKR24 cells; antibody at 0.8 µg/mL.
Test [4] has the same target. The test is described as follows: cell-based or functional assay.
For test [5] the target is unchanged. The test is described as follows: flow cytometry on BaL-infected NKR24 cells; antibody at 0.16 µg/mL.
Test [6] shares this target. The test is described as follows: flow cytometry on BaL-infected NKR24 cells; antibody at 100 µg/mL.
For test [7] the target is unchanged. The test is described as follows: flow cytometry on BaL-infected NKR24 cells; antibody at 4 µg/mL.

B1: SW-1C10 (1C10 antibody produced in the cocoons of transgenic silkworms) (antibody, human IgG1, kappa, V domains shown)
VH: EVQLVESGGGVVQPGRSLRVSCVASGFMFSNYAMHWVRQTAGKGLEWVAIISNDGSDKYYADSVQGRFTVSRDNSQNTLFLQMSGLRPEDSGLYYCARDLDQTIPDLTAPAFEVWGQGTMVTVSS
VL: DIVMTQSPLSLAVTPGEPASISCRSSQSLLHSDGNNYLDWYLQKPGQSPQLLIYLTSNRASGVPDRFSGSGSGTDFTLKISRVEAEDVGVYFCMQSLQTWTFGQGTKVEIKR
modifications: N-glycans without core fucose (silkworm-produced)
As to B1, the MFI in test [1] was found to be 779 MFI; in test [2], 1640 MFI; in test [3], 1260 MFI; in test [5], 1080 MFI; in test [6], 1900 MFI; in test [7] it was 1440 MFI. For the same molecule, in test [4], the IC50 (50% inhibitory concentration) of infection of TZM-bl cells by BaL virus, luciferase RLU; 'Dose at Y = 50' was determined as 0.108 mg/L.

B2: 293A-1C10 (1C10 antibody of 293A origin) (antibody, human IgG1, kappa, V domains shown)
VH: B1 VH
VL: B1 VL
Consider B2, for which the MFI is 983 MFI in test [1]; 1780 MFI in test [2]; 1290 MFI in test [3]; 1210 MFI in test [5]; 1780 MFI in test [6]; 1530 MFI in test [7]. For the same molecule, the IC50 (50% inhibitory concentration) of infection of TZM-bl cells by BaL virus, luciferase RLU; 'Dose at Y = 50' in test [4] worked out at 0.133 mg/L.
